Experiments:
[1] = target: BldM fused to the T18 or the T25 fragment of adenylate cyclase (BACTH) (Streptomyces venezuelae); assay: two-hybrid; bacterial two-hybrid (BACTH), T18 (pUT18) and T25 (pKT25) fusions in E. coli BTH101; transformants grown at 30°C for two days; β-galactosidase assays of four independent clones
[2] = target: WhiI fused to the T18 or the T25 fragment of adenylate cyclase (BACTH) (Streptomyces venezuelae); assay: as above

Substance	β-galactosidase activity (Miller units) [1] [Miller units]	β-galactosidase activity (Miller units) [2] [Miller units]
BldM fused to the T18 or the T25 fragment of adenylate cyclase (BACTH) (natural protein)	750	3000
WhiI fused to the T18 or the T25 fragment of adenylate cyclase (BACTH) (natural protein)	3000	–
